Assay: soluble on expression in E. coli; label from the status in PepcDB or PDB records

| Sequence | soluble on expression in E. coli |
| --- | --- |
| MNDIAHNLAQVRDKISAAATRCGRSPEEITLLAVSKTKPASAIAEAIDAGQRQFGENYVQEGVDKIRHFQELGVTGLEWHFIGPLQSNKSRLVAEHFDWCHTIDRLRIATRLNDQRPAELPPLNVLIQINISDENSKSGIQLAELDELAAAVAELPRLRLRGLMAIPAPESEYVRQFEVARQMAVAFAGLKTRYPHIDTLSLGMSDDMEAAIAAGSTMVRIGTAIFGARDYSKK | soluble |
| MNEAEQELYEALVAICQTSGFLLLEELPTDLPDQPFVYLGDSKELPKPTKSAILGEIELIMHVYGALSERQQISTIKGTILRQATSNLKRTAHFNWGIKHQEVKAQMVKDTKQMKKTIWHAVLPLHMQFY | not soluble |
| MNEIKLKYDTQVSVVHYESLDSRSFKSFSMPKWSKLVNKLSVPIEANYKYARGVAVYGDIKDNTNDHGEIIKKHRNDKNVIYRNVIVLDYDEINDVKQLHDAISSVLSSVAWYWHTSFSHTTEQARIRLYIPLNERISADDYRKYTKVLANKIGHKVDEGSYQPSRCFALPVIQKGHIFIKRVNDCPIMDVDMLEQWSKEYKQSNGSPNIKGYTRRDSAYWRDIAFGVSEGERNSTLASITGYLLRRYVDPNLVYGLVSAWASVCKPPINQSEVNNTFKSILKKDSKNS | not soluble |
| MNEKVFRDPVHNYIHVNNQIIYDLINTKEFQRLRRIKQLGTSSYTFHGGEHS | soluble |
| MNELKNAQTASAHRILLPLLRCIASGAADVTEEGNEIVLRRKRPGQAVQRFPTETVRLAVSSGLLEWRQNSLSAAPPLASYLKRATAKDRDEVFQEQHRDIQTVVVEIDETKQPARRNLNTAPLTSLSRLKERDGSAFFPEDALAAGERLAADFHRGHLNPRVTATWEPRIASRGKGEAGGALDLTEAAMAARARFSRAADAMGPELSGVAIDICCFEKGLETVERERLWPARSAKLLLRAALLSLARHYAPPVPPARGKDRPKERHWGDADYRPSLR | not soluble |
| MNELVSIITPCYNSAATIRETIRSVIAQSYVNWELLIIDDCSNDDSVKIIMEFMDTDSRIYYLKTEHPSGGPTLPRNVGIQAAKGRFIAFLDSDDIWLPNKLSTQLPLFINDNVAIVYSDYEKISEEGNRTGRIVKSDPYHHYKSLLCGNELGCLTVVYDTQKIGKRYFKFIGHEDYNLWLDILKEGFIAINTNICLALYRIRKGSVSSNKLRVIKWIWHIYRVEQKKTIWLSLYYSLSDLNKSLFKYLKLEHHHHHH | soluble |
| MNEPSACSGPPVKSKSSKNEPFYTLKALLPPYSEIQGNHDLLMSYELGPVEGGFSGSRRVKEKISSFLPHIIGEFHLDATKEASSLRALIEKPPIHKEISNLTSSSMQGFKLSAGPVDERYRHLFERRKEEPNLAYSEKLNLIRVRQQYDAYGFDDDETEKGFPKKHKKKKKDKKRKKEKEELGDAEKRKRAADEPMEF | not soluble |
| MNEYAPLRLHVPEPTGRPGCQTDFSYLRLNDAGQARKPPVDVDAADTADLSYSLVRVLDEQGDAQGPWAEDIDPQILRQGMRAMLKTRIFDSRMVVAQRQKKMSFYMQSLGEEAIGSGQALALNRTDMCFPTYRQQSILMARDVSLVEMICQLLSNERDPLKGRQLPIMYSVREAGFFTISGNLATQFVQAVGWAMASAIKGDTKIASAWIGDGATAESDFHTALTFAHVYRAPVILNVVNNQWAISTFQAIAGGESTTFAGRGVGCGIASLRVDGNDFVAVYAASRWAAERARRGLGPSLIEWVTYRAGPHSTSDDPSKYRPADDWSHFPLGDPIARLKQHLIKIGHWSEEEHQATTAEFEAAVIAAQKEAEQYGTLANGHIPSAASMFEDVYKEMPDHLRRQRQELGV | soluble |
| MNFIIEPGSLADIDELERLYDELNDHLSATINYPGWIKGIYPVRENAAAGVDDNSLFVARCDGRIAGSVILDHQPEKAYENIVWKIDADYSYIFVVRTFVVHPSFLQMGVGHALMDFSLELALKSEMKSIRLDVYEKNLPAISLYEKCGFEYIDTVDLGLGHYGLDWFKLYEKVILEHHHHHH | soluble |
| MNFLRKIVKNCKDEEIPKPGTPSAPPDDDDLWMPPPEYVPLTQIKGKENVRNFCINGEIKICSPNGYSFRILRHILKSFDNVYSGNRRLIGVVKVVIGLVLSASPVPEGMNWVYKLRRTLIFQWAESHGPLEGEELEYSQEITWDDEAEFVSLQIRVSAKQCHIQGRLWCINMNSKACQLWADMGLKTQQSQEDENTSLLLE | soluble |
| MNGAELIIQEINKEAERKIEYILNEARQQAEKIKEEARRNAEAKAEWIIRRAKTQAELEKQRIIANARLEVRRKRLAIQEEIISSVLEEVKRRLETMSEDEYFESVKALLKEAIKELNEKKVRVMSNEKTLGLIASRIEEIKSELGDVSIELGETVDTMGGVIVETEDGRIRIDNTFEARMERFEGEIRSTIAKVLFG | soluble |
| MNGGGKNVLNKNSVGSVSEVGPDSTQEETPRDVRLLHLLLASQSIHQYEDQVPLQLMDFAHRYTQGVLKDALVYNDYAGSGNSAGSGLGVEDIRLAIAARTQYQFKPTAPKELMLQLAAERNKKALPQVMGTWGVRLPPEKYCLTAKEWDLEDPKSM | not soluble |
| MNGTRNWCTLVDVHPEDRAAGSVDILRLTLQGEPTGDELEHIAQKAGRKTYAMVSSHSAGHSLASELVESHDGHEEIIKVYLKGRSGDKMIHEKNINQLKSEVQYIQEARNCLQKLREDISSKLDRNLGDSLHRQEIQVVLEKPNGFSQSPTALYSSPPEVDTCINEDVESLRKTVQDLLAKLQEAKRQHQSDCVAFEVTLSRYQREAEQSNVALQREEDRVEQKEAEVGELQRRLLGMETEHQALLAKVREGEVALEELRSNNADCQAEREKAATLEKEVAGLREKIHHLDDMLKSQQRKVRQMIEQLQNSKAVIQSKDATIQELKEKIAYLEAENLEMHDRMEHLIEKQISHGNFSTQARAKTENPGSIRISKPPSPKPMPVIRVVET | soluble |
| MNHFELYKLKKAGLTNKNILNILDYQKHQEKSLSLRDMAVVSGCKHPSHFIEAYKQLDIQNLKMEFKQFPSISILDKHYPMALKEIYNPPVLLFFQGNLDLLEKPKLAIVGSRRSSDTGVKSVRKILKELGNRFVIVSGLARGIDTSAHLACLKNGGQTIAIIGTGLDRFYPKENRELQTFLGKNHLVLTEYGPGEEALSYHFPERNRIIAGLSRGILVVEAKNRSGSLITCQIGIEEGRDIFAVPGNILDGKSEGCLQLIKEGATCVTSGMDILSEY | not soluble |
| MNIFDHYRQRYEAAKDEEFTLQEFLTTCRQDRSAYANAAERLLMAIGEPVMVDTAQEPRLSRLFSNRVIARYPAFEEFYGMEDAIEQIVSYLKHAAQGLEEKKQILYLLGPVGGGKSSLAERLKSLMQLVPIYVLSANGERSPVNDHPFCLFNPQEDAQILEKEYGIPRRYLGTIMSPWAAKRLHEFGGDITKFRVVKVWPSILQQIAIAKTEPGDENNQDISALVGKVDIRKLEHYAQNDPDAYGYSGALCRANQGIMEFVEMFKAPIKVLHPLLTATQEGNYNGTEGISALPFNGIILAHSNESEWVTFRNNKNNEAFLDRVYIVKVPYCLRISEEIKIYEKLLNHSELTHAPCAPGTLETLSRFSILSRLKEPENSSIYSKMRVYDGESLKDTDPKAKSYQEYRDYAGVDEGMNGLSTRFAFKILSRVFNFDHVEVAANPVHLFYVLEQQIEREQFPQEQAERYLEFLKGYLIPKYAEFIGKEIQTAYLESYSEYGQNIFDRYVTYADFWIQDQEYRDPDTGQLFDRESLNAELEKIEKPAGISNPKDFRNEIVNFVLRARANNSGRNPNWTSYEKLRTVIEKKMFSNTEELLPVISFNAKTSTDEQKKHDDFVDRMMEKGYTRKQVRLLCEWYLRVRKSS | soluble |
| MNIISEHGFRIDGRRPAQIRNINTRLGLNRNAEGSCYLEHGNTKVLCAVYGPYEGKSSKRIEDKCAIVCQYSATKFSGLERKNRTRGDRKSTEISRLLEKAFESVILTEAFPRSQLDIFCEVIQGDGSNLAACVNATSLALADAGIPMKGIASAATCGVVDGKPIVDLTSREETDLLPRVTLATICGRDEVILVELQNRLHIDHLSTVMDAAKATCADVYECLAVVAQQHLKACAPILGN | not soluble |
| MNILQEPIDFLKKEELKNIDLSQMSKKERYKIWKRIPKCELHCHLDLCFSADFFVSCIRKYNLQPNLSDEEVLDYYLFAKGGKSLGEFVEKAIKVADIFHDYEVIEDLAKHAVFNKYKEGVVLMEFRYSPTFVAFKYNLDIELIHQAIVKGIKEVVELLDHKIHVALMCIGDTGHEAANIKASADFCLKHKADFVGFDHGGHEVDLKEYKEIFDYVRESGVPLSVHAGEDVTLPNLNTLYSAIQVLKVERIGHGIRVAESQELIDMVKEKNILLEVCPISNVLLKNAKSMDTHPIRQLYDAGVKVSVNSDDPGMFLTNINDDYEELYTHLNFTLEDFMKMNEWALEKSFMDSNIKDKIKNLYFKGEFEAYV | soluble |
| MNINILLSTYNGERFLAEQIQSIQRQTVNDWTLLIRDDGSTDGTQDIIRTFVKEDKRIQWINEGQTENLGVIKNFYTLLKHQKADVYFFSDQDDIWLDNKLEVTLLEAQKHEMTAPLLVYTDLKVVTQHLAVCHDSMIKTQSGHANTSLLQELTENTVTGGTMMITHALAEEWTTCDGLLMHDWYLALLASAIGKLVYLDIPTELYRQHDANVLGARTWSKRMKNWLTPHHLVNKYWWLITSSQKQAQLLLDLPLKPNDHELVTAYVSLLDMPFTKRLATLKRYGFRKNRIFHTFIFRSLVVTLFGYRRK | not soluble |
| MNINLSVPYAAEGPGPTINTLGQVDGEDVVSISSADLDETEGNLNMTTVSVRSGMTLSQVISRWLFTDDTIVPIEQVFPPGQSTEEVEESNRTAFISSESSATIAAMNYLNIPVEVEVAEVLTDSAATGIFEPGDKLLSIDGTAISTPGDAQTIVRSKAPGDEITISYERNDAESQATITLREHPDDSSVALLGISMLSVPSSAIEVDYNLEDIGGPSAGMMFSLAVVDKLSPGALNGGKFVAGTGTIAEDGSVGPIGGIAHKVRAAEDAGAEVFLSPADNCAEAMSAKPQDMTILKVDSLSQAIDQMAAYNEGLEHHHHHH | soluble |
| MNKEEQYLLFALSAPMEILNQGCKPAHDSPKMYTGIKEFELSSSWGINNRDDLIQTIYQMTDDGHANDLAGLYLTWHRSSPEEWKALIAGGSERGLIYTQFVAQTAMCCGEGGIKAWDYVRMGFLSRVGVLNKWLTEEESLWLQSRVYVRAHHYYHSWMHYFSAYSLGRLYWQSSQCEDNTSLREALTLYKYDSAGSRMFEELAAGSDRFYATLPWQPLTVQSECPVTLKDVSDL | soluble |
| MNKEQLQQMRQAPGFVGALDQSGGSTPKALKAYGIQPDAYQSEEEMFDLIHQMRTRMITSPAFATGKIIGVILFERTMRGKIEGMPTADFLWEKRHIVPFLKVDKGLQDEANGVQLMKPFPELGKLCEEAVGYHVFGTKMRSVIKQANEQGIRDIVEQQFQWGKEILSHGLVPILEPEVDIHCPEKAKAEEILKRELLAQLDKMTEPVMLKITIPTVDNFYKEIIEHPMMLRVVALSGGYSREQANELLSRNHGVIASFSRALVEGLSARQTDAEFNAMLEASIEDVYQASIK | soluble |
| MNKFLFAAALIVSGLLVGCNQLTQYTITEQEINQSLAKHNNFSKDIGLPGVADAHIVLTNLTSQIGREEPNKVTLTGDANLDMNSLFGSQKATMKLKLKALPVFDKEKGAIFLKEMEVVDATVQPEKMQTVMQTLLPYLNQALRNYFNQQPAYVLREDGSQGEAMAKKLAKGIEVKPGEIVIPFTD | not soluble |

From the DeepSol protein solubility set
